Results reported in US5728677, “Methods of inhibiting T-cell dependent proliferation of peripheral blood lymphocytes using the CD2-binding domain of lymphocyte function associated antigen 3” (Biogen, Inc., dated 1998).

B1: M101 deletion mutant of LFA-3 (ligand)
chain: FSQQIYGVVYGNVTFHVPSNVPLKEVLWKKQKDKVAELENSEFRAFSSFKNRVYLDTVSGSLTIYNLTSSWDCPMEQCKRNSTSIYFKMENDLPQKIQCTLSNPLFNTTSSIILTTCIPSSGHSRHRYALIPIPLAVITTCIVLYMNGILKCDRKPDRTNSN
B2: M100 deletion mutant of LFA-3 (ligand)
chain: FSQQIYGVVYDEDEYEMESPNITDTMKFFLYVLESLPSPTLTCALTNGSIEVQCMIPEHYNSHRGLIMYSWDCPMEQCKRNSTSIYFKMENDLPQKIQCTLSNPLFNTTSSIILTTCIPSSGHSRHRYALIPIPLAVITTCIVLYMNGILKCDRKPDRTNSN
B3: M102 deletion mutant of LFA-3 (ligand)
chain: FSQQIYGVVYGNVTFHVPSNVPLKEVLWKKQKDKVAELENSEFRAFSSFKNRVYLDTVSGSLTIYNLTSSDEDEYEMESPNITDTMKFFLYVLESLPSPTLTCALTNGSIEVQCMIPEHYNSHRGLIMYSSGHSRHRYALIPIPLAVITTCIVLYMNGILKCDRKPDRTNSN
B4: M57 deletion mutant of LFA-3 (ligand)
chain: FSQQIYGVVYGNVTFHVPSNVPLKEVLWKKQKDKVAELENSEFRAFSSFKSLTIYNLTSSDEDEYEMESPNITDTMKFFLYVLESLPSPTLTCALTNGSIEVQCMIPEHYNSHRGLIMYSWDCPMEQCKRNSTSIYFKMENDLPQKIQCTLSNPLFNTTSSIILTTCIPSSGHSRHRYALIPIPLAVITTCIVLYMNGILKCDRKPDRTNSN

What was measured:
[1] = biological target: T1, CD2 (human, UniProt P06729)
Target sequence in this assay (P06729 25-351): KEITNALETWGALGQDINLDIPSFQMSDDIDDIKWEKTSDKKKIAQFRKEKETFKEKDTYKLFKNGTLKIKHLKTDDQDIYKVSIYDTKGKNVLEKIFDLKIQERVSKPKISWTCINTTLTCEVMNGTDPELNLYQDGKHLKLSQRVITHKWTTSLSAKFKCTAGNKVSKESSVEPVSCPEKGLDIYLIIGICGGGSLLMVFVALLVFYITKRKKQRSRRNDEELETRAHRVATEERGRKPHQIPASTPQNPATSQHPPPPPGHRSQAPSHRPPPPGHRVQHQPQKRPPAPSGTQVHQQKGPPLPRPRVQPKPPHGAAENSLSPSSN

[2] = biological target: T1, CD2; remark: listed apart in the source
[3] = biological target: T1, CD2; test: Jurkat cell binding assay, microscopy
Protocol: M57/CHO cells, P24/CHO cells and CHO cells (1 ×10^5) were added to separate wells of a 6-well plate (Corning) and washed twice with RPMI Complete Medium. Jurkat cells (CD2^+), obtained as a gift from Dr. Timothy Springer (Dana Farber Cancer Inst., Boston, Mass.) were washed three times with a solution of RPMI, 10% FCS, 4 mM L-glutamine, and then 5 ×10^6 cells were added to each well and incubated for 4 hours at 0° C. Cells were then washed gently three times with RPMI and examined under the microscope at 40X and 100X magnification for cell-cell binding.
The M100/CHO, M101/CHO and M102/CHO transfectants were subjected to a Jurkat cell binding assay, as described in Example 4 above.

Molecule | inhibition of PHA dependent PBL proliferation, suboptimal PHA (0.1 µg/ml) [1] [%] | inhibition of PHA dependent PBL proliferation, optimal PHA [2] [%] | binding result [3]
LFA3TIP (Fc fusion) | 70 | 41 | –
anti-CD2 monoclonal antibody TS2/18 | – | 20 | –
B1 | – | – | binds
B2 | – | – | no binding
B3 | – | – | binds
B4 | – | – | no binding
